Reference: patent US20100233689A1

What was measured:
[1] = target: rat MISRII receptor (MIS type II receptor), transiently expressed in COS7 cells (rat) (UniProt Q62893); test: cell-based or functional assay
[2] = target: endogenous MISRII of the mouse ovarian cancer cell line MOVCAR7 (mouse) (UniProt Q8K592); test: cell-based or functional assay
Sequence of endogenous MISRII of the mouse ovarian cancer cell line MOVCAR7 (mouse) (Q8K592 16-568): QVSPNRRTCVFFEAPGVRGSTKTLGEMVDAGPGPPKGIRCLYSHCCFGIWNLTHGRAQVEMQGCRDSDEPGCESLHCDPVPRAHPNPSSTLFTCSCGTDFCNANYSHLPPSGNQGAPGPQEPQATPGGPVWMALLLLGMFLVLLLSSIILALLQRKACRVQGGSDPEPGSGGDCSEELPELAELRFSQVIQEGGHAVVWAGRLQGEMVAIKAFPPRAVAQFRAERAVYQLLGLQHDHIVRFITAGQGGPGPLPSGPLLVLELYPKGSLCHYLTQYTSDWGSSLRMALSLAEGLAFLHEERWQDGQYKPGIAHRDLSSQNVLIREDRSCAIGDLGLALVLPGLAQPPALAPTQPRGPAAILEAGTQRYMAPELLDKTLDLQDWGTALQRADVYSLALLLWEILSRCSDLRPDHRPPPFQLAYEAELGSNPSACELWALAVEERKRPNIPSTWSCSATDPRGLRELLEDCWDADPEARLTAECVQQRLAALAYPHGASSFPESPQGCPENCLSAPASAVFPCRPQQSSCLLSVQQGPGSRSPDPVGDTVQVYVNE

Sequence of rat MISRII receptor (MIS type II receptor), transiently expressed in COS7 cells (rat) (Q62893 18-557): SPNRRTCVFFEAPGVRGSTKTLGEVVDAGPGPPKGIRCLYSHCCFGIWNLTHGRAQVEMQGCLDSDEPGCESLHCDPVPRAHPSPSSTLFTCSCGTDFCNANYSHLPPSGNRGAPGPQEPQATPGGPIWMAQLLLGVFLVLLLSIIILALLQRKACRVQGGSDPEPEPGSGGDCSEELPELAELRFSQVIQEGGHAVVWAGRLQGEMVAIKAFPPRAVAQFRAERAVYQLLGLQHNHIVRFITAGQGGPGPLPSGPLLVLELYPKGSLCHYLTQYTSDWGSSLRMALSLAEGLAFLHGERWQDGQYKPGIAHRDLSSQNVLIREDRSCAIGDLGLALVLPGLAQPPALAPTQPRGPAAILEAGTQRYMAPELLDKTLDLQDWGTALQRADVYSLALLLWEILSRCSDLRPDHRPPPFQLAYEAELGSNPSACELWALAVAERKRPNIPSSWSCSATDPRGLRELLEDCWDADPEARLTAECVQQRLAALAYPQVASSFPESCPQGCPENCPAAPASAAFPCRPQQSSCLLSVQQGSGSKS

- BRE-luciferase reporter expression in MISRII-transfected COS7 cells, fold induction, 24 h [1]: > 10 fold
- BRE-luciferase activity in MOVCAR7 cells, fold increase over untreated cells, 24 h [2]: 2 fold
Substance: Recombinant human Mullerian Inhibiting Substance (MIS) (from UniProt P03971 25-560) (ligand)
